Data published in US20130052733A1.

Molecular target: mAb LGIII 147.4.1
Experiment: direct ELISA, capture by mAb LG III 147.4.1, detection with FL119

## HLA-A*1101/LMP2340-349-fused β2m (from UniProt P61769 21-119) (peptide-MHC)
  concentration at which absorbance is saturated: 4 nCM
